Data published in article doi:10.1101/340133.

Key:
[1] = biological target: dynamic microtubules polymerized from αβ-tubulin on GMPCPP seeds (porcine) (UniProt P02554); assay: TIRF microscopy of dynamic microtubules
[2] = biological target: dynamic microtubules polymerized from αβ-tubulin on GMPCPP seeds (porcine) (UniProt P02554); assay: single molecule TIRF microscopy of dynamic microtubules

Chain of UniProt P02554 (P02554 whole entry, looked up): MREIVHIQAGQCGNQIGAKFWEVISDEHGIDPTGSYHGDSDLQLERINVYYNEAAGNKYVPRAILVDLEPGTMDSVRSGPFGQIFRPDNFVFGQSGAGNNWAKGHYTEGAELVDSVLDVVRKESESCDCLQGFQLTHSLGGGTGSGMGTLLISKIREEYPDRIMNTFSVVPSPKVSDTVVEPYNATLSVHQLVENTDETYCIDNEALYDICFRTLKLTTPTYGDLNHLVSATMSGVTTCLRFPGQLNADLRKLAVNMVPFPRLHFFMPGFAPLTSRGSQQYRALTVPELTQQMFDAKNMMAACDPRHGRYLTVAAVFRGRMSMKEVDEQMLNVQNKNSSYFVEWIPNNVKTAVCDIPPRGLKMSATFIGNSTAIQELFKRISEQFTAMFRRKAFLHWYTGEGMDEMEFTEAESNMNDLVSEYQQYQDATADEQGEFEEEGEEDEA

B1: wt-Alp14 (residues 1-690) with C-terminal mNeonGreen (domain or fragment)
chain: MSQDQEEDYSKLPLESRIVHKVWKVRLSAYEECSKSFSLSADGSDNCFELWNNQSELWKSVLTDSNVAAQEAGTAAFVAYCRFSDPSHLLKAREISVLSISEKCLTSPRAGTRENALEALMLLVEADSAAPVIESIIPSLSARSPKVIASNVAAIASLVEQFGAKVIPSKMIIPHISNLFGHADKNVRKEASRLTVNIYRWTGDPLKDLLFKDLRPVQTKELESLFAELPTEPPKQTRFLKSQQPTSEPNVETQVEEQPALENEESEPEPSDDQFDLVEEVDVLPNVDPNLETLMASSKWKDRKEALDKLLPVLSQPKIKDNDFFNLVAILTKSVSKDANIMVVINAAHCIQAMAKGLRSNFSKYASTSINALLERSKEKKANVIESLSSAMDAVLATSSLDDLAELIASFAGNKNPQIKSSCFSLFSRSFSNMTSLPSKFTVDTCAKACVPGVSDTFEPVRSAAAEALGVLMKLVGERAINQYLSPLDDIRKSKIRSFYETATVKAKAPTKKSKVKPSKQEESKVVVPSNAKAVKKSVVPSSPVVPSPRKATNKSLSMDVSKGNAFENGPLLPRPTTRPVSRGLSRGTSSSLQQKVKASTPLNSGALNETVQNLKNMELDDPAPQPAKHSRVDRYEHPKVLEDNDSTISSLESLKRENEELREQLKVEHEENISMQKQLSELKGELNTL
B1 was tested, and the residence ratio at MT plus-ends (average) [1] was 89.4%.

B2: SNAPf-tagged TOG1M Alp14 (residues 1-690) (domain or fragment)
chain: MSQDQEEDYSKLPLESRIVHKVAKVRLSAYEECSKSFSLSADGSDNCFELWNNQSELWKSVLTDSNVAAQEAGTAAFVAYCRFSDPSHLLKAREISVLSISEKCLTSPAAGTRENALEALMLLVEADSAAPVIESIIPSLSARSPKVIASNVAAIASLVEQFGAKVIPSKMIIPHISNLFGHADKNVRKEASRLTVNIYAWTGDPLKDLLFKDLRPVQTKELESLFAELPTEPPKQTRFLKSQQPTSEPNVETQVEEQPALENEESEPEPSDDQFDLVEEVDVLPNVDPNLETLMASSKWKDRKEALDKLLPVLSQPKIKDNDFFNLVAILTKSVSKDANIMVVINAAHCIQAMAKGLRSNFSKYASTSINALLERSKEKKANVIESLSSAMDAVLATSSLDDLAELIASFAGNKNPQIKSSCFSLFSRSFSNMTSLPSKFTVDTCAKACVPGVSDTFEPVRSAAAEALGVLMKLVGERAINQYLSPLDDIRKSKIRSFYETATVKAKAPTKKSKVKPSKQEESKVVVPSNAKAVKKSVVPSSPVVPSPRKATNKSLSMDVSKGNAFENGPLLPRPTTRPVSRGLSRGTSSSLQQKVKASTPLNSGALNETVQNLKNMELDDPAPQPAKHSRVDRYEHPKVLEDNDSTISSLESLKRENEELREQLKVEHEENISMQKQLSELKGELNTL
modifications: SNAP-Surface Atto 488 covalently attached to the SNAPf tag
B2 gave a dwell time at MT plus-ends [2] of 57.4 s.

B3: C-terminally SNAPf-tagged wt-Alp14 (residues 1-690) (domain or fragment)
chain: MSQDQEEDYSKLPLESRIVHKVWKVRLSAYEECSKSFSLSADGSDNCFELWNNQSELWKSVLTDSNVAAQEAGTAAFVAYCRFSDPSHLLKAREISVLSISEKCLTSPRAGTRENALEALMLLVEADSAAPVIESIIPSLSARSPKVIASNVAAIASLVEQFGAKVIPSKMIIPHISNLFGHADKNVRKEASRLTVNIYRWTGDPLKDLLFKDLRPVQTKELESLFAELPTEPPKQTRFLKSQQPTSEPNVETQVEEQPALENEESEPEPSDDQFDLVEEVDVLPNVDPNLETLMASSKWKDRKEALDKLLPVLSQPKIKDNDFFNLVAILTKSVSKDANIMVVINAAHCIQAMAKGLRSNFSKYASTSINALLERSKEKKANVIESLSSAMDAVLATSSLDDLAELIASFAGNKNPQIKSSCFSLFSRSFSNMTSLPSKFTVDTCAKACVPGVSDTFEPVRSAAAEALGVLMKLVGERAINQYLSPLDDIRKSKIRSFYETATVKAKAPTKKSKVKPSKQEESKVVVPSNAKAVKKSVVPSSPVVPSPRKATNKSLSMDVSKGNAFENGPLLPRPTTRPVSRGLSRGTSSSLQQKVKASTPLNSGALNETVQNLKNMELDDPAPQPAKHSRVDRYEHPKVLEDNDSTISSLESLKRENEELREQLKVEHEENISMQKQLSELKGELNTL
modifications: SNAP-Surface Atto 488 covalently attached to the SNAPf tag (5-10 nM labeled diluted into 190-195 nM non-labeled)
B3 was tested, and the dwell time at MT plus-ends [2] was 129 s.

B4: TOG1 inactivated Alp14 (TOG1M), residues 1-690, with C-terminal mNeonGreen (domain or fragment)
chain: MSQDQEEDYSKLPLESRIVHKVAKVRLSAYEECSKSFSLSADGSDNCFELWNNQSELWKSVLTDSNVAAQEAGTAAFVAYCRFSDPSHLLKAREISVLSISEKCLTSPAAGTRENALEALMLLVEADSAAPVIESIIPSLSARSPKVIASNVAAIASLVEQFGAKVIPSKMIIPHISNLFGHADKNVRKEASRLTVNIYAWTGDPLKDLLFKDLRPVQTKELESLFAELPTEPPKQTRFLKSQQPTSEPNVETQVEEQPALENEESEPEPSDDQFDLVEEVDVLPNVDPNLETLMASSKWKDRKEALDKLLPVLSQPKIKDNDFFNLVAILTKSVSKDANIMVVINAAHCIQAMAKGLRSNFSKYASTSINALLERSKEKKANVIESLSSAMDAVLATSSLDDLAELIASFAGNKNPQIKSSCFSLFSRSFSNMTSLPSKFTVDTCAKACVPGVSDTFEPVRSAAAEALGVLMKLVGERAINQYLSPLDDIRKSKIRSFYETATVKAKAPTKKSKVKPSKQEESKVVVPSNAKAVKKSVVPSSPVVPSPRKATNKSLSMDVSKGNAFENGPLLPRPTTRPVSRGLSRGTSSSLQQKVKASTPLNSGALNETVQNLKNMELDDPAPQPAKHSRVDRYEHPKVLEDNDSTISSLESLKRENEELREQLKVEHEENISMQKQLSELKGELNTL
In the case of B4, the residence ratio at MT plus-ends (average) [1] is reported as 72.4%.
